Results taken from patent US8703915B2, “Mutant proteins and methods for producing them” (Heptares Therapeutics Limited, priority 2009, dated 2014).
Entries after “also recorded” stand apart in the source; their conditions may differ.

Tests used:
[1] = system: A2A receptor; experiment: Thermostability of A2A receptor in NECA agonist-bound state, solubilised in DDM; format: physicochemical, human
Experimental: (§1) In order to stabilise an agonist-bound conformation, a systematic Alanine-scan was performed in order to identify mutations that may stabilise the A2A receptor bound to its full agonist NECA. In this A2A agonist-bound study, L2.46 (L48A) is the most stabilising single mutant. When NECA is bound to the solubilised receptor, removing the L48 side chain (in A2A-L48A) dramatically increases the thermostability of the ligand-receptor complex resulting in an increase of 14° C. over the wild type receptor in the detergent DDM (FIG. 5a). […] We evaluated the signalling property of the A2A receptor by over-expressing the receptor in CHO cells. A2A agonist stimulation triggers the signal transduction through the Gs-trimeric complex and increases the intracellular cAMP level. The increase in intracellular cAMP can be detected by and quantified by using an anti-cAMP Mab antibody competition assay. […] However the signalling efficacy is reduced to 30% (FIG. 6).
(§2) A2AR-(2-316) expression was carried out by using the pRG/III-hs-MBP E. coli expression vector and DH5α cells. Cells were grown at 37° C. in 2 L flasks containing 500 mL of 2×TY medium supplemented with Ampicillin (100 μg/mL) and glucose (0.2% w/v). At OD600≈0.7, IPTG and theophylline were added at final concentrations respectively of 0.5 mM and 100 μM, and the temperature was reduced to 20° C. After 22 to 24 hours, cells were harvested in aliquots of 14 mL, centrifuged for 30 min and stored at −20° C. Both 5HT2C and M4 receptors were transiently expressed in HEK293T cells using GeneJuice transfection reagent used according to the manufacturers guidelines.
An aliquot of E. coli cells expressing wild type or mutant A2AR-(2-316) (14 mL) was thawed on ice and cells were resuspended in 500 μL of buffer A (50 mM Tris HCl mM/pH 7.4; 0.4 M NaCl, 250 μg/mL lysozyme (Sigma), 1 mg/mL DNAse I (Sigma), supplemented with complete EDTA-free Protease inhibitor cocktail (Roche)) and incubated 1 hour at 4° C. Samples were then sonicated 1 min at 4° C. using a cup-horn sonicator. […]

[2] = system: A2A receptor; experiment: Thermostability of A2A receptor in ZM241385 antagonist-bound state, solubilised in DDM; format: physicochemical, human; details: ZM antagonist
Experimental: as §1
A2AR-(2-316) expression was carried out by using the pRG/III-hs-MBP E. coli expression vector and DH5α cells. Cells were grown at 37° C. in 2 L flasks containing 500 mL of 2×TY medium supplemented with Ampicillin (100 μg/mL) and glucose (0.2% w/v). At OD600≈0.7, IPTG and theophylline were added at final concentrations respectively of 0.5 mM and 100 μM, and the temperature was reduced to 20° C. […]

[3] = molecular target: T1, A2A receptor (Homo sapiens, UniProt P29274, L48A); experiment: cAMP functional assay (HTRF), NECA stimulation of CHO cells over-expressing A2A receptor; format: cell-based; details: cAMP, relative to A2A-WT
T1 construct: transfected with 100 ng of pcDNA-3-A2A(2-316) pre-incubated with 0.3 μL of GeneJuice; expressed in transfected cells; host or cells: CHO cells, transient
Experimental: as §1
(§3) This assay takes advantage of Homogeneous Time-Resolved Fluorescence (HTRF) using cAMP labeled with the dye d2 in presence of an anti-cAMP Mab labeled with Cryptate. The method is based on a competitive immunoassay between cAMP produced by cells and the cAMP labeled with the dye d2. CHO cells were grown using Glutamax Ham's F12, 10% FBS in 96-well plates, clear bottom and Black wall (Costar). Cells were seeded at a density of 12500 cells per well, grown overnight, washed with PBS and then transfected with 100 ng of pcDNA-3-A2A(2-316) pre-incubated with 0.3 μL of GeneJuice (Novagen) per well. After 48 hours of receptor expression, the medium was removed, the cells were washed in PBS then stimulated by using different NECA concentrations, in the presence of Rolipram (50 μM) and Adenosine deaminase in a total volume of 50 μL for 30 minutes. Dilution was realised in Hamf's F12/cAMP-d2 conjugate according to the manufacturer protocol, without serum. […] The plate was incubated at room temperature for 1 hour and then read using the Pherastar 96-well time-resolved fluorescence plate reader (Ex 340 nm; Em 665/620 nm).

[4] = system: A2A receptor; experiment: as above; format: cell-based, human; details: intracellular cAMP, CHO cells
Experimental: as §1, §3

[5] = system: OX2 receptor; experiment: Thermostability of OX2 receptor bound to antagonist EMPA; format: physicochemical, human; details: bound to antagonist EMPA
Experimental: (§4) Transiently transfected mammalian cells expressing M4 were harvested about 40 hours post transfection and the receptors were solubilised in 50 mM Tris pH 7.5/250 mM NaCl/1% DDM/EDTA free protease inhibitor mix for 1 hour rotating at 4° C. The solubilised lysate was then cleared by centrifugation at 13000 rpm for 15 minutes at 4° C. The solubilised receptors were then purified on Ni-NTA beads and eluted with 100 mM histidine. The eluted receptor was used in radioligand binding assay. Thermostability of M4 was measured using 25 μL of purified receptor mixed with 95 μL of 12 nM [^3H]-NMS (final concentration of 10 nM). The sample was incubated for 60 min at 4° C., then 30 min at the specified temperature and then 30 min at 4° C. Receptor bound and free radioligand were separated using a 96-well plate gel filtration assay.
A tandem alanine and leucine scanning mutagenesis strategy was used to identify mutations that enhanced the thermostability of OX2 bound to the small-molecule antagonist EMPA.
Thermostability assays were preformed on partially purified receptors as described for M4, with the following amendments. Cell lysates were solubilised in 50 mM Tris pH7.4, 150 mM NaCl, 1% DDM supplemented with 1× complete EDTA free protease inhibitor cocktail (Roche). Radioligand binding reactions were set up using 1/10 volume eluted receptor mixed with 20 nM ^3H-EMPA (final concentration) per temperature point.

[6] = molecular target: T2, M4 muscarinic receptor (Homo sapiens, UniProt P08173, L74A); experiment: Thermostability of M4 muscarinic receptor bound to antagonist NMS; format: physicochemical; details: antagonist NMS bound, data not shown
T2 construct: made in house; host or cells: HEK293T cells, transient
T2 sequence (P08173 1-479 L74A): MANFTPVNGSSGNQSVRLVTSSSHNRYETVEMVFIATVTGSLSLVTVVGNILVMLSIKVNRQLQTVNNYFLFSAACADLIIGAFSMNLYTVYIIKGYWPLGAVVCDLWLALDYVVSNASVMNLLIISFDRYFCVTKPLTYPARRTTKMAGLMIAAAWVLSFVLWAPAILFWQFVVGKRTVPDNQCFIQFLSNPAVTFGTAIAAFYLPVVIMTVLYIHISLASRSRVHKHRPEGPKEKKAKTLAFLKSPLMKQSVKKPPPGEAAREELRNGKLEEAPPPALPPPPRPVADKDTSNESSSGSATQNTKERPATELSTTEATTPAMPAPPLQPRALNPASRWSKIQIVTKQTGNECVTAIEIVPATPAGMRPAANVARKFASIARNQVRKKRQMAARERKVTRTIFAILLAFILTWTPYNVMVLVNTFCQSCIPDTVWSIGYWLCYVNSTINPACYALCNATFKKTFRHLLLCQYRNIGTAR
Experimental: In order to stabilise the M4 muscarinic receptors in antagonist conformation, a systematic alanine-scan was performed to identify mutations that stabilise receptors bound to the muscarinic antagonist, NMS. […] However, L71A (three residues N-terminal of the L2.46) was identified as a stabilising mutation. This mutation increases the Tm of this receptor by about 2° C. (FIG. 8a).
as §2, §4

B1: A2A-L48A: human adenosine A2A receptor mutant, Leu 48 (L2.46) replaced by alanine (protein, UniProt P29274 1-412, looked up, variant L48A)
Adenosine receptor A2a: MPIMGSSVYITVELAIAVLAILGNVLVCWAVWLNSNLQNVTNYFVVSAAAADIAVGVLAIPFAITISTGFCAACHGCLFIACFVLVLTQSSIFSLLAIAIDRYIAIRIPLRYNGLVTGTRAKGIIAICWVLSFAIGLTPMLGWNNCGQPKEGKNHSQGCGEGQVACLFEDVVPMNYMVYFNFFACVLVPLLLMLGVYLRIFLAARRQLKQMESQPLPGERARSTLQKEVHAAKSLAIIVGLFALCWLPLHIINCFTFFCPDCSHAPLWLMYLAIVLSHTNSVVNPFIYAYRIREFRQTFRKIIRSHVLRQQEPFKAAGTSARVLAAHGSDGEQVSLRLNGHPPGVWANGSAPHPERRPNGYALGLVSGGSAQESQGNTGLPDVELLSHELKGVCPEPPGLDDPLAQDGAGVS
Tm ([1]; NECA agonist-bound state (400 nM), solubilised in DDM): 42.5±1.0 °C | increase in thermostability over the wild type receptor ([1]; NECA bound, detergent DDM): 14 °C | antagonist binding [2]: abolishes the binding of the antagonist; also recorded: no binding detected | signalling efficacy [3]: 30% | pEC50 [4]: 8.10±0.39

B2: OX2WT: wild type human orexin 2 receptor (protein, UniProt O43614 1-444, looked up)
Orexin receptor type 2: MSGTKLEDSPPCRNWSSASELNETQEPFLNPTDYDDEEFLRYLWREYLHPKEYEWVLIAGYIIVFVVALIGNVLVCVAVWKNHHMRTVTNYFIVNLSLADVLVTITCLPATLVVDITETWFFGQSLCKVIPYLQTVSVSVSVLTLSCIALDRWYAICHPLMFKSTAKRARNSIVIIWIVSCIIMIPQAIVMECSTVFPGLANKTTLFTVCDERWGGEIYPKMYHICFFLVTYMAPLCLMVLAYLQIFRKLWCRQIPGTSSVVQRKWKPLQPVSQPRGPGQPTKSRMSAVAAEIKQIRARRKTARMLMIVLLVFAICYLPISILNVLKRVFGMFAHTEDRETVYAWFTFSHWLVYANSAANPIIYNFLSGKFREEFKAAFSCCCLGVHHRQEDRLTRGRTSTESRKSLTTQISNFDNISKLSEQVVLTSISTLPAANGAGPLQNW
Tm [5]: 28.47 °C

B3: M4 L2.46: M4 muscarinic receptor with L2.46 residue mutated to alanine (protein, UniProt P08173 1-479, looked up, variant L74A)
Muscarinic acetylcholine …: MANFTPVNGSSGNQSVRLVTSSSHNRYETVEMVFIATVTGSLSLVTVVGNILVMLSIKVNRQLQTVNNYFLFSAACADLIIGAFSMNLYTVYIIKGYWPLGAVVCDLWLALDYVVSNASVMNLLIISFDRYFCVTKPLTYPARRTTKMAGLMIAAAWVLSFVLWAPAILFWQFVVGKRTVPDNQCFIQFLSNPAVTFGTAIAAFYLPVVIMTVLYIHISLASRSRVHKHRPEGPKEKKAKTLAFLKSPLMKQSVKKPPPGEAAREELRNGKLEEAPPPALPPPPRPVADKDTSNESSSGSATQNTKERPATELSTTEATTPAMPAPPLQPRALNPASRWSKIQIVTKQTGNECVTAIEIVPATPAGMRPAANVARKFASIARNQVRKKRQMAARERKVTRTIFAILLAFILTWTPYNVMVLVNTFCQSCIPDTVWSIGYWLCYVNSTINPACYALCNATFKKTFRHLLLCQYRNIGTAR
effect on thermal stability [6]: does not change the thermal stability of this receptor significantly
